Experimental data published in IntAct's records for PubMed 35512704.

B1: Speckle-type POZ protein (Homo sapiens), O43791 (parent)
chain: MSRVPSPPPPAEMSSGPVAESWCYTQIKVVKFSYMWTINNFSFCREEMGEVIKSSTFSSGANDKLKWCLRVNPKGLDEESKDYLSLYLLLVSCPKSEVRAKFKFSILNAKGEETKAMESQRAYRFVQGKDWGFKKFIRRDFLLDEANGLLPDDKLTLFCEVSVVQDSVNISGQNTMNMVKVPECRLADELGGLWENSRFTDCCLCVAGQEFQAHKAILAARSPVFSAMFEHEMEESKKNRVEINDVEPEVFKEMMCFIYTGKAPNLDKMADDLLAAADKYALERLKVMCEDALCSNLSVENAAEILILADLHSADQLKTQAVDFINYHASDVLETSGWKSMVVSHPHLVAEAYRSLASAQCPFLGPPRKRLKQS

Variants of: B1
Settings: with pk3cg_human PIK3CG
F133V was tested, and the “effect of a mutation on the interaction” value was “with no effect”.

Variants of: B1
Settings: with p85b_human PIK3R2, O00459
In the case of F133V, the “effect of a mutation on the interaction” value is reported as “with no effect”.

Variants of: B1
Settings: with dpod1_human POLD1, P28340
F133V was tested, and the “effect of a mutation on the interaction” value was “with no effect”.

Variants of: B1
Settings: with dpoe1_human POLE
For F133V, the “effect of a mutation on the interaction” value was “with no effect”.

Variants of: B1
Settings: with ppard_human PPARD
In the case of F133V, the “effect of a mutation on the interaction” value is reported as “with no effect”.

Variants of: B1
Settings: with prdm1_human PRDM1, O75626
With F133V the “effect of a mutation on the interaction” value was “with no effect”.

Variants of: B1
Settings: with prex2_human PREX2, Q70Z35
For F133V, the “effect of a mutation on the interaction” value was “with no effect”.

Variants of: B1
Settings: with aapk2_human PRKAA2, P54646
aapk2_human PRKAA2, P54646, sequence (P54646 whole entry, looked up): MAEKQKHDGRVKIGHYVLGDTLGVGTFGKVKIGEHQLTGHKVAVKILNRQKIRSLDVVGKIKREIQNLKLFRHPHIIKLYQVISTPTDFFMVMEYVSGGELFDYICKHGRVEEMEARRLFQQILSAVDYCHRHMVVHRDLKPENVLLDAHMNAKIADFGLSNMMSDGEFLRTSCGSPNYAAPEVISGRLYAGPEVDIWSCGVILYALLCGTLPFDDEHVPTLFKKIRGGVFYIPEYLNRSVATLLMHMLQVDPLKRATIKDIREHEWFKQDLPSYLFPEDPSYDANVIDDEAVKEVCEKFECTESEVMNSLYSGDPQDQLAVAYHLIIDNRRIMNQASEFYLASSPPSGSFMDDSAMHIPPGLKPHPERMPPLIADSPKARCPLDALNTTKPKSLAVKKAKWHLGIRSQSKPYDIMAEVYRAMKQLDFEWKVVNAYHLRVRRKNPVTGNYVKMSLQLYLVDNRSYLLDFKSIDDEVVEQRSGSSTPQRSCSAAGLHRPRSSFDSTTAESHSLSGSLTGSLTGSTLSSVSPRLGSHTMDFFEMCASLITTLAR
In the case of F133V, the “effect of a mutation on the interaction” value is reported as “with no effect”.

Variants of: B1
Settings: with prss8_human PRSS8, Q16651
prss8_human PRSS8, Q16651, sequence (Q16651 whole entry, looked up): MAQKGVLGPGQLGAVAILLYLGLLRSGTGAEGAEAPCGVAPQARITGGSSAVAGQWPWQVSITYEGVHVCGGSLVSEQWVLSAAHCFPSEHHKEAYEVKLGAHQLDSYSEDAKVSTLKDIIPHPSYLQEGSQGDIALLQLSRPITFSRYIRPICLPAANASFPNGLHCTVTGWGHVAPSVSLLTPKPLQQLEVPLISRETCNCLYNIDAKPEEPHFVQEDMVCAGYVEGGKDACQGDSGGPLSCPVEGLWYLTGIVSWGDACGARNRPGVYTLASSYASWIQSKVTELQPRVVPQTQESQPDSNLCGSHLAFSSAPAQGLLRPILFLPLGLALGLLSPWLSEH
F133V was tested, and the “effect of a mutation on the interaction” value was “with no effect”.

Variants of: B1
Settings: with ptk6_human PTK6, Q13882
In the case of F133V, the “effect of a mutation on the interaction” value is reported as “with no effect”.

Variants of: B1
Settings: with tf65_human RELA
With F133V the “effect of a mutation on the interaction” value was “with no effect”.

Variants of: B1
Settings: with rictr_human RICTOR
For F133V, the “effect of a mutation on the interaction” value was “with no effect”.

Variants of: B1
Settings: with rnf43_human RNF43, Q68DV7
With F133V the “effect of a mutation on the interaction” value was “with no effect”.

Variants of: B1
Settings: with ros1_human ROS1, P08922
With F133V the “effect of a mutation on the interaction” value was “with no effect”.

Variants of: B1
Settings: with rl11_human RPL11, P62913
In the case of F133V, the “effect of a mutation on the interaction” value is reported as “with no effect”.

Variants of: B1
Settings: with rl5_human RPL5, P46777
In the case of F133V, the “effect of a mutation on the interaction” value is reported as “with no effect”.

Variants of: B1
Settings: with rs15_human RPS15, P62841
F133V was tested, and the “effect of a mutation on the interaction” value was “with no effect”.

Variants of: B1
Settings: with rxra_human RXRA
F133V was tested, and the “effect of a mutation on the interaction” value was “with no effect”.

Variants of: B1
Settings: with sdha_human SDHA
With F133V the “effect of a mutation on the interaction” value was “with no effect”.

Variants of: B1
Settings: with setbp_human SETBP1, Q9Y6X0
With F133V the “effect of a mutation on the interaction” value was “with no effect”.

Variants of: B1
Settings: with setb1_human SETDB1, Q15047
For F133V, the “effect of a mutation on the interaction” value was “with no effect”.

Variants of: B1
Settings: with skp2_human SKP2, Q13309
skp2_human SKP2, Q13309, sequence (Q13309 whole entry): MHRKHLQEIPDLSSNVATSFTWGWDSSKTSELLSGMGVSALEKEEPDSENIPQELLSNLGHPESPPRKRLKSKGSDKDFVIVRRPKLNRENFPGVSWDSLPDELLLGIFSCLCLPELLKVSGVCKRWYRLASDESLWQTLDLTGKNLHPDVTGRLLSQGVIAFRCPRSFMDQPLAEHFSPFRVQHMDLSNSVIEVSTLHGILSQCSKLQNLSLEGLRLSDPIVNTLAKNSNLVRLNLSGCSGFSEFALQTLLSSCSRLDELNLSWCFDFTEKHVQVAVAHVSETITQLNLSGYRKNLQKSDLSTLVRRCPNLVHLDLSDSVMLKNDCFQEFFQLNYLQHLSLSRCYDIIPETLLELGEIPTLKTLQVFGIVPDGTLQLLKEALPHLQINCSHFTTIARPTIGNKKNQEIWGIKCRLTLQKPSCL
With F133V the “effect of a mutation on the interaction” value was “with no effect”.

Variants of: B1
Settings: with xct_human SLC7A11, Q9UPY5
With F133V the “effect of a mutation on the interaction” value was “with no effect”.

Variants of: B1
Settings: with smad1_human SMAD1, Q15797
With F133V the “effect of a mutation on the interaction” value was “with no effect”.

Variants of: B1
Settings: with smca4_human SMARCA4, P51532
In the case of F133V, the “effect of a mutation on the interaction” value is reported as “with no effect”.

Variants of: B1
Settings: with snf5_human SMARCB1, Q12824
With F133V the “effect of a mutation on the interaction” value was “with no effect”.

Variants of: B1
Settings: with smo_human SMO
F133V was tested, and the “effect of a mutation on the interaction” value was “with no effect”.

Variants of: B1
Settings: with smuf1_human SMURF1, Q9HCE7
F133V was tested, and the “effect of a mutation on the interaction” value was “with no effect”.

Variants of: B1
Settings: with socs1_human SOCS1, O15524
F133V was tested, and the “effect of a mutation on the interaction” value was “with no effect”.

Variants of: B1
Settings: with sox10_human SOX10, P56693
F133V was tested, and the “effect of a mutation on the interaction” value was “with no effect”.

Variants of: B1
Settings: with sox2_human SOX2, P48431
F133V was tested, and the “effect of a mutation on the interaction” value was “with no effect”.

Variants of: B1
Settings: with src_human SRC
With F133V the “effect of a mutation on the interaction” value was “with no effect”.

Variants of: B1
Settings: with whr1_human WHR1, P49842
whr1_human WHR1, P49842, sequence (P49842 whole entry): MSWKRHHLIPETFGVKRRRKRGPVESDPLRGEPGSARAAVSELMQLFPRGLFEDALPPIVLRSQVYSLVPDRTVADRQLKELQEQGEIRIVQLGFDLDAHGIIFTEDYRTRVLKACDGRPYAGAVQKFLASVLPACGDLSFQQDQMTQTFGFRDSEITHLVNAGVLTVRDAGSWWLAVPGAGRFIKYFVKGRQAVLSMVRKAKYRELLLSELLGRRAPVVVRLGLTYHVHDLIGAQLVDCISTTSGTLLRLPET
In the case of F133V, the “effect of a mutation on the interaction” value is reported as “with no effect”.

Variants of: B1
Settings: with stk38_human STK38, Q15208
In the case of F133V, the “effect of a mutation on the interaction” value is reported as “with no effect”.

Variants of: B1
Settings: with eloc_human ELOC
With F133V the “effect of a mutation on the interaction” value was “with no effect”.

Variants of: B1
Settings: with tfe2_human TCF3, P15923
F133V was tested, and the “effect of a mutation on the interaction” value was “with no effect”.

Variants of: B1
Settings: with tead1_human TEAD1, P28347
With F133V the “effect of a mutation on the interaction” value was “with no effect”.

Variants of: B1
Settings: with tead3_human TEAD3, Q99594
F133V was tested, and the “effect of a mutation on the interaction” value was “with no effect”.

Variants of: B1
Settings: with tead4_human TEAD4, Q15561
For F133V, the “effect of a mutation on the interaction” value was “with no effect”.

Variants of: B1
Settings: with tgfr2_human TGFBR2, P37173
tgfr2_human TGFBR2, P37173, sequence (P37173 whole entry): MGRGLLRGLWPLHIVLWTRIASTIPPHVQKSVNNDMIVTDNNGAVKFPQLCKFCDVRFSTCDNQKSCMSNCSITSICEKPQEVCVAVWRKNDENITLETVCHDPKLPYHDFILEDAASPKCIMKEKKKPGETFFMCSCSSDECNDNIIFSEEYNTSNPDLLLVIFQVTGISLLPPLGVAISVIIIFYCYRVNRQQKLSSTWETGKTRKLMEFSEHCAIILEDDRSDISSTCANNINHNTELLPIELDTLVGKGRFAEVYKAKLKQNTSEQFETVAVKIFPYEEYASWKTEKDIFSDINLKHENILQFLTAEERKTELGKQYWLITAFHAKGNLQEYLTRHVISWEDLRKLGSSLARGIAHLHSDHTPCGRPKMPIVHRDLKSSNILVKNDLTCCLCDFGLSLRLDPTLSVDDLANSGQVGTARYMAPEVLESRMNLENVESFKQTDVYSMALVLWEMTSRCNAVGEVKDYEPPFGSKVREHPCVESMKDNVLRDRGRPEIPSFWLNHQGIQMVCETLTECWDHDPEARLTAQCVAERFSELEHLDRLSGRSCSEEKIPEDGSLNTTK
F133V was tested, and the “effect of a mutation on the interaction” value was “with no effect”.

Variants of: B1
Settings: with tnr14_human TNFRSF14, Q92956
In the case of F133V, the “effect of a mutation on the interaction” value is reported as “with no effect”.

Variants of: B1
Settings: with tpx2_human TPX2, Q9ULW0
tpx2_human TPX2, Q9ULW0, sequence (Q9ULW0 whole entry): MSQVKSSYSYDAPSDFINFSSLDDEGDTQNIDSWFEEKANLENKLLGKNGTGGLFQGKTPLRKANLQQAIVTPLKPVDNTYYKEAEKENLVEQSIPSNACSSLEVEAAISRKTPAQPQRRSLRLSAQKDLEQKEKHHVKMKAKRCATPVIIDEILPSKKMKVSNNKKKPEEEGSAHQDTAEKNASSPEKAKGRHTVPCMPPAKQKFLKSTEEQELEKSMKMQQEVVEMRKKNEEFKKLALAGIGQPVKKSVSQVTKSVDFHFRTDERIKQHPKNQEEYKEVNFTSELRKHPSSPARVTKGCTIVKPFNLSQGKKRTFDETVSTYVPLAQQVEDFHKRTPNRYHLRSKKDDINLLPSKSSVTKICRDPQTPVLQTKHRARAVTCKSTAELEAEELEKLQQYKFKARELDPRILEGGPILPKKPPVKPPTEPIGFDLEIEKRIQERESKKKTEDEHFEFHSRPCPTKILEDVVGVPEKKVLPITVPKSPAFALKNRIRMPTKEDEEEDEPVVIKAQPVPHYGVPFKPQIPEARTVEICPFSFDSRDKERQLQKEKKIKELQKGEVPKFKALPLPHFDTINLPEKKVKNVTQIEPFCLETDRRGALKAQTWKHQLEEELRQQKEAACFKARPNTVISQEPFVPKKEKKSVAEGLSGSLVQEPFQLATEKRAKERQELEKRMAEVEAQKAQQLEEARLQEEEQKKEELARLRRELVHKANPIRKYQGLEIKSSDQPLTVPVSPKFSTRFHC
With F133V the “effect of a mutation on the interaction” value was “with no effect”.

Variants of: B1
Settings: with tsc2_human TSC2, P49815
tsc2_human TSC2, P49815, sequence (P49815 whole entry): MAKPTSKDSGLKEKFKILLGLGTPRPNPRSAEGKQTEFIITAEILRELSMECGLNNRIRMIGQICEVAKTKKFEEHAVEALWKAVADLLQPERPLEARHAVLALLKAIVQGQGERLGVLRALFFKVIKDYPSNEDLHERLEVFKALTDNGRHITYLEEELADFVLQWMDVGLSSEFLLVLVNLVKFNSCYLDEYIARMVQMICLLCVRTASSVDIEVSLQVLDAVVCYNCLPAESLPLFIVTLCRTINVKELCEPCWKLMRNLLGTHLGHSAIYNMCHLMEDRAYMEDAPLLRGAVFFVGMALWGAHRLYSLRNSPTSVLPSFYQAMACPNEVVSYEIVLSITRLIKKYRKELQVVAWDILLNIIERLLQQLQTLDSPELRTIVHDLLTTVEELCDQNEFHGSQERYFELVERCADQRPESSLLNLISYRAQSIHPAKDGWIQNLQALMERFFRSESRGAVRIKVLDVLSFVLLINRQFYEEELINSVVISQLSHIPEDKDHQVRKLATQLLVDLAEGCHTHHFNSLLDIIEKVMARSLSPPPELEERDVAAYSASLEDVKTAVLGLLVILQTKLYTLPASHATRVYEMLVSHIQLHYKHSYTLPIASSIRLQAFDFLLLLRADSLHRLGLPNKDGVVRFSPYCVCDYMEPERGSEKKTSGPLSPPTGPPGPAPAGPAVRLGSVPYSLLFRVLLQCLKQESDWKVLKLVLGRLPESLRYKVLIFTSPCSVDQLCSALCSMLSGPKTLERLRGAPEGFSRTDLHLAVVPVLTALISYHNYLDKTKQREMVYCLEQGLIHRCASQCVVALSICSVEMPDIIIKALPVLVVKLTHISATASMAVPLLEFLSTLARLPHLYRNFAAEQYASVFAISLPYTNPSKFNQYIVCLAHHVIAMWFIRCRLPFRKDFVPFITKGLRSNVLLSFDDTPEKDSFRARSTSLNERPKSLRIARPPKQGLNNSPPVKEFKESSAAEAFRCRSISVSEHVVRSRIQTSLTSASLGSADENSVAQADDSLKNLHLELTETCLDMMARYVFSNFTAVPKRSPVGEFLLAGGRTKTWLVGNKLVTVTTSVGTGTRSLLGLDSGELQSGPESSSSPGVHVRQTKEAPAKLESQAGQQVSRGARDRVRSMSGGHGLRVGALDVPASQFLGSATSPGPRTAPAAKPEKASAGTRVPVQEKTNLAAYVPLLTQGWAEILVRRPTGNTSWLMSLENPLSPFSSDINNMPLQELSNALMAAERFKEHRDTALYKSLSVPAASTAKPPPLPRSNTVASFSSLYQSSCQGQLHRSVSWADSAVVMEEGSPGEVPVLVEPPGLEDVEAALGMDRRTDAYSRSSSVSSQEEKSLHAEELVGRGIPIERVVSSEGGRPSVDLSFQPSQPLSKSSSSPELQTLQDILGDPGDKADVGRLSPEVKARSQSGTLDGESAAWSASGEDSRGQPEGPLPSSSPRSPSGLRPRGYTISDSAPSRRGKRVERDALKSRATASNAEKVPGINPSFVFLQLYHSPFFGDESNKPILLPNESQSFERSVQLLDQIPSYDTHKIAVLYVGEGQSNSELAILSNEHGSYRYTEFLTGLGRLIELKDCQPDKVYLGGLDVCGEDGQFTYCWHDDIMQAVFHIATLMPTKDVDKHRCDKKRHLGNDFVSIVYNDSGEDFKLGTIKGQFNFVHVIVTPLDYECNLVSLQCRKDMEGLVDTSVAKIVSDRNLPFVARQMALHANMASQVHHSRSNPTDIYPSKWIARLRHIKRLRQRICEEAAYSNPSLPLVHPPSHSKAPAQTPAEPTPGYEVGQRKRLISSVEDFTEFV
With F133V the “effect of a mutation on the interaction” value was “with no effect”.

Variants of: B1
Settings: with tshr_human TSHR
For F133V, the “effect of a mutation on the interaction” value was “with no effect”.

Variants of: B1
Settings: with vegfa_human VEGFA
For F133V, the “effect of a mutation on the interaction” value was “with no effect”.

Variants of: B1
Settings: with vhl_human VHL
In the case of F133V, the “effect of a mutation on the interaction” value is reported as “with no effect”.

Variants of: B1
Settings: with wee1_human WEE1, P30291
In the case of F133V, the “effect of a mutation on the interaction” value is reported as “with no effect”.

Variants of: B1
Settings: with wwtr1_human WWTR1, Q9GZV5
F133V was tested, and the “effect of a mutation on the interaction” value was “with no effect”.

Variants of: B1
Settings: with xpo1_human XPO1, O14980
For F133V, the “effect of a mutation on the interaction” value was “with no effect”.

Variants of: B1
Settings: with cblb_human CBLB
For F133V, the “effect of a mutation on the interaction” value was “causing an interaction”.

Variants of: B1
Settings: with jun_human JUN
In the case of F133V, the “effect of a mutation on the interaction” value is reported as “causing an interaction”.

Variants of: B1
Settings: with kdm6a_human KDM6A
With F133V the “effect of a mutation on the interaction” value was “causing an interaction”.

Variants of: B1
Settings: with pax5_human PAX5, Q02548
F133V was tested, and the “effect of a mutation on the interaction” value was “causing an interaction”.

Variants of: B1
Settings: with PIK3C2B
With F133V the “effect of a mutation on the interaction” value was “causing an interaction”.

Variants of: B1
Settings: with e2f5_human E2F5, Q15329
e2f5_human E2F5, Q15329, sequence (Q15329 whole entry): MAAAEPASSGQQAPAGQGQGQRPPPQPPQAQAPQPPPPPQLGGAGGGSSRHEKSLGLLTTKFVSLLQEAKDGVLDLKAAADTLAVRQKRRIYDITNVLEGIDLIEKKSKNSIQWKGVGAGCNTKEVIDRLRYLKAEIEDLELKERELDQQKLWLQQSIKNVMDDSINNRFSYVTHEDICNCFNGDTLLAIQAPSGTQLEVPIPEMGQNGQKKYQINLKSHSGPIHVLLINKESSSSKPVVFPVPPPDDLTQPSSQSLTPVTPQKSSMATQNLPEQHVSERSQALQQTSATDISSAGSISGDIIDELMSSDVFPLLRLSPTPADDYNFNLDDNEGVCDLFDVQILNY
F133V was tested, and the “effect of a mutation on the interaction” value was “causing an interaction”.

Variants of: B1
Settings: with cul3_human CUL3, Q13618
F133V was tested, and the “effect of a mutation on the interaction” value was “increasing interaction strength”.

Variants of: B1
Settings: with etv1_human ETV1, P50549
With F133V the “effect of a mutation on the interaction” value was “decreasing interaction strength”.
